These results are taken from patent US20170334985A1 (Genentech, published 2017).

Where only a bound is given, the exact number is not on record here.

A word on the Kd: it is a measure of binding affinity in units of concentration. In general, koff refers to a measure of how fast the partners let go of each other. A word on the kon: it is the rate constant with which the complex forms.

In one experiment the target is T1, human IL-17AA (human, UniProt Q16552 20-155, limits assumed).
T1 construct: Bought from R&D Systems, cat #317-ILB-050; also called IL-17A homodimer
T1 sequence: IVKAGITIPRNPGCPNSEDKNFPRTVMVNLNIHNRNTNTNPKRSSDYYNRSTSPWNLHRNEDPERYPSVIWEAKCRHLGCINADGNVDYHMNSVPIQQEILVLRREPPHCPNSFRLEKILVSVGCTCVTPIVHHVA
Nature of the experiment: SPR (BIAcore T200), bispecific antibody captured by anti-human Fc on CM5 chip, cytokine injected, 25 C, 1:1 Langmuir model. The protocol:
(§1) Binding affinities of anti-IL-17/anti-IL-13 bispecific antibody against various IL-17 cytokines were measured by Surface Plasmon Resonance (SRP) using a BIAcore™-T200 instrument. Anti-IL-17/anti-IL-13 bispecific antibody was captured by mouse anti-human Fc antibody (GE Healthcare, cat #BR-1008-39) coated on CM5 biosensor chips to achieve approximately 500 response units (RU). For kinetics measurements, five-fold serial dilutions (20 nM to 32 pM) of human IL-17AA (R&D Systems, cat #317-ILB-050), human IL-17AF heterodimer, human IL-17FF (R&D Systems, cat #1335-IL-025/CF), cyno IL-17AA, cyno IL-17AF, and cyno IL-17FF were injected in HBS-P buffer (GE Healthcare) at 25° C. with a flow rate of 30 μl/min. Association rates (kₒₙ) and dissociation rates (koff) were calculated using a simple one-to-one Langmuir binding model (BlAcore T200 Evaluation Software version 2.0). The equilibrium dissociation constant (KD) was calculated as the ratio koff/kₒₙ.

In a further experiment the target is T2, cyno IL-17AA (cynomolgus monkey, UniProt A0A2K5TTB0 24-155).
T2 construct: Recombinant protein in the SPR assay; also called cynomolgus monkey IL-17AA; IL-17A homodimer (cynomolgus monkey)
T2 sequence: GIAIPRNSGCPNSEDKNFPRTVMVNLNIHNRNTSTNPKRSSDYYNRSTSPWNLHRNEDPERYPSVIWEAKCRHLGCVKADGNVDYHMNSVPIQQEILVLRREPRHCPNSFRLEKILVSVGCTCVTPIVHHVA
The description is as above. The protocol:
as §1

Another experiment concerns the target T3, human IL-13 (human, UniProt P35225 35-146, limits assumed).
T3 construct: also called recombinant human IL-13
Nature of the experiment: SPR (BIAcore T200), antibody captured by anti-human Fc on CM5 chip, cytokine injected, 25 C, 1:1 Langmuir model. Here is the method:
(§2) Binding affinities of the anti-IL-17/anti-IL-13 bispecific antibody against human and cynomolgus monkey IL-13 cytokines were measured with a BIAcore™-T200 instrument. Anti-IL-13 antibody was captured by mouse anti-human Fc antibody (GE Healthcare, cat #BR-1008-39) coated on CM5 biosensor chips to achieve approximately 500 response units (RU). Four-fold serial dilutions (50 nM to 49 pM) of human IL-13, human IL-13R130Q (a common IL-13 variant associated with allergy and asthma, see Vladich et al., 2005, J. Clin Invest., 115:747-754), and cyno IL-13 were injected in FIBS-P buffer (GE Healthcare) at 25° C. with a flow rate of 30 μl/min. Association rates (kₒₙ) and dissociation rates (koff) were calculated using a simple one-to-one Langmuir binding model (BIAcore T200 Evaluation Software version 2.0). The equilibrium dissociation constant (KD) was calculated as the ratio koff/kₒₙ.
For orientation: In SPR one partner is held on a chip, and binding of the other changes the refractive index at the surface.

The target in another experiment is T4, cynomolgus monkey IL-13 (cynomolgus monkey, UniProt Q5I6E4 19-132 (Macaca thibetana entry), limits assumed).
T4 construct: also called cyno IL-13
T4 chain: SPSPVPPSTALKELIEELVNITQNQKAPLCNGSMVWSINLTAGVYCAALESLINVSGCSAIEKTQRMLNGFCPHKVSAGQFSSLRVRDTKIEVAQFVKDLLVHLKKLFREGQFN
The experiment is described as above. The protocol:
as §2

In a further experiment the target is T5, human IL-13 R130Q (human, UniProt P35225 35-146, limits assumed).
T5 construct: Common IL-13 variant
The description is as above. The protocol:
as §2

The next experiment concerns the target T6, human IL-17FF (human, UniProt Q96PD4 31-163).
T6 sequence: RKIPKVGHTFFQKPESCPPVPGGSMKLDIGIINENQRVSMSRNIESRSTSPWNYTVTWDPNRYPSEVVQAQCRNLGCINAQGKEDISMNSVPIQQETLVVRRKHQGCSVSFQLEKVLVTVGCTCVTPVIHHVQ
Nature of the experiment: cell-based or functional assay.

Experiment [1] deals with T7, human IL-17AF heterodimer (human, UniProt Q16552 24-155; Q96PD4 31-163, limits assumed).
T7 sequence 1: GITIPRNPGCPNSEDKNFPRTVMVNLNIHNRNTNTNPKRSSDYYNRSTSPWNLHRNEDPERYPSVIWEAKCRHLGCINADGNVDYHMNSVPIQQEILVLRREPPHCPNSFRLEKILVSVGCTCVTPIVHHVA
T7 sequence 2: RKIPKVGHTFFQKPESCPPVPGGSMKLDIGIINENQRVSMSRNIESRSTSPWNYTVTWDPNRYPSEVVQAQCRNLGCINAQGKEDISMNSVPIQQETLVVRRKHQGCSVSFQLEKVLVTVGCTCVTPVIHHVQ
Nature of the experiment: cell-based or functional assay.

T3 sequence (P35225 other isoform, or with tags, fused parts or gaps limits assumed): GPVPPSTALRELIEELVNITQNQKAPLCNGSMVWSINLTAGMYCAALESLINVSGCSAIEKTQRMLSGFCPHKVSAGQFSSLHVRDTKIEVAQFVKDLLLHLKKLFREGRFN
T5 sequence (P35225 35-146 limits assumed, stated change not applied): as the sequence (P35225 other isoform, or with tags, fused parts or gaps limits assumed) above, with R110Q counted along it

B1: anti-IL-13/IL-17 bispecific antibody (bispecific antibody, human IgG4 S228P)
heavy 1: not shown
VL 1: DIVLTQSPDSLSVSLGERATINCRASKSVDSYGNSFMHWYQQKPGQPPKLLIYLASNLESGVPDRFSGSGSGTDFTLTISSLQAEDVAVYYCQQNNEDPRTFGGGTKVEIKR
heavy 2: EVQLVESGGGLVQPGRSLRLSCAASGFTFDDYAMHWVRQAPGKGLEWVSGINWSSGGIGYADSVKGRFTISRDNAKNSLYLQMNSLRAEDTALYYCARDIGGFGEFYWNFGLWGRGTLVTVSSASTKGPSVFPLAPCSRSTSESTAALGCLVKDYFPEPVTVSWNSGALTSGVHTFPAVLQSSGLYSLSSVVTVPSSSLGTKTYTCNVDHKPSNTKVDKRVESKYGPPCPPCPAPEFLGGPSVFLFPPKPKDTLMISRTPEVTCVVVDVSQEDPEVQFNWYVDGVEVHNAKTKPREEQFNSTYRVVSVLTVLHQDWLNGKEYKCKVSNKGLPSSIEKTISKAKGQPREPQVYTLPPSQEEMTKNQVSLSCAVKGFYPSDIAVEWESNGQPENNYKTTPPVLDSDGSFFLVSRLTVDKSRWQEGNVFSCSVMHEALHNHYTQKSLSLSLGK
VL 2: not shown
notes: Knobs-into-holes human IgG4; also called anti-IL-17/anti-IL-13 bispecific antibody; anti-IL-13/IL-17 IgG4 bispecific antibody
In the case of B1, the equilibrium dissociation constant (Kd) is 0.021 nM with human IL-17AA; 0.033 nM with cyno IL-17AA; 0.0355 nM with human IL-13; < 0.001 nM with cynomolgus monkey IL-13; < 0.001 nM with human IL-13 R130Q. Also, the off-rate constant (koff) is 0.000118 s⁻¹ in the experiment with human IL-17AA; 0.000291 s⁻¹ with cyno IL-17AA; 2.07e-05 s⁻¹ with human IL-13; < 1e-06 s⁻¹ in the experiment with cynomolgus monkey IL-13; < 1e-06 s⁻¹ with human IL-13 R130Q. The kon is 5.55e+06 M⁻¹ s⁻¹ with human IL-17AA; 8.89e+06 M⁻¹ s⁻¹ with cyno IL-17AA; 584000 M⁻¹ s⁻¹ with human IL-13; > 1e+06 M⁻¹ s⁻¹ with cynomolgus monkey IL-13; 864000 M⁻¹ s⁻¹ in the experiment with human IL-13 R130Q.

B2: Parental anti-IL17 antibody (antibody, V domains shown)
VH: EVQLVESGGGLVQPGRSLRLSCAASGFTFDDYAMHWVRQAPGKGLEWVSGINWSSGGIGYADSVKGRFTISRDNAKNSLYLQMNSLRAEDTALYYCARDIGGFGEFYWNFGLWGRGTLVTVSS
VL: not shown
Turning to B2, the “IC90 (molar ratio), inhibition of IL-17FF-induced G-CSF expression in normal human foreskin fibroblasts (ELISA)” value in the experiment with human IL-17FF was ~1 molar ratio. Also, the “IC90 (molar ratio), inhibition of IL-17AF-induced G-CSF expression in normal human foreskin fibroblasts (ELISA)” value in experiment [1] was ~1 molar ratio.
